Patent US20180258153A1 (Novo Nordisk, published 2018)
Starred links: 1 amine or outer side, 2 acyl side, 3 side chain; linkers in the order of their positions; H or OH if unused. Non-standard residues stand in square brackets, D forms with d. Groups on a side chain read outwards from the residue. No end group written: not given here. *: point of attachment. C20 diacid = O=C(O)CCCCCCCCCCCCCCCCCCC(=O)*; γGlu = O=C(O)[C@H](CCC(=O)[*:2])N[*:1]; Desaminohistidyl = O=C(CCc1c[nH]cn1)*; Trx = NC[C@H]1CC[C@H](C(=O)O)CC1; AEEA = NCCOCCOCC(=O)O; Aib = CC(C)(N)C(=O)O

B1: GLP-1 derivative of Example 1 (peptide)
peptide: HXEGTFTSDVSSYLEEQAAREFIAWLVRGRK
modifications: not fully specified; Aib at position 8 (GLP-1 numbering); epsilon-amino of Lys37 acylated with branched side chain: Pre-linker Ado; Branched linker eps-Lys(Bis); two Post-linkers Trx-gGlu-2xAdo, each carrying a C20 diacid Protractor
notes: also called Chem. 21; N{Epsilon-37}-acylated [Aib8,Glu22,Arg26,Arg34,Lys37]-GLP-1-(7-37)-peptide
B2: GLP-1 derivative of Example 9 (peptide)
peptide: B1 peptide
modifications: not fully specified; Aib at position 8 (GLP-1 numbering); epsilon-amino of Lys37 acylated with branched side chain: Pre-linker 2xeps-Lys; Branched linker eps-Lys(Bis); two Post-linkers Trx-gGlu, each carrying a C20 diacid Protractor
notes: also called Chem. 29; N{Epsilon-37}-acylated [Aib8,Glu22,Arg26,Arg34,Lys37]-GLP-1-(7-37)-peptide
B3: GLP-1 derivative of Example 12 (peptide)
peptide: B1 peptide
modifications: Aib at position 8 (GLP-1 numbering); epsilon-amino of Lys37 acylated with branched side chain: Pre-linker 6xAdo; Branched linker eps-Lys(Bis); two Post-linkers Trx-gGlu, each carrying a C20 diacid Protractor
notes: also called Chem. 32; N{Epsilon-37}-acylated [Aib8,Glu22,Arg26,Arg34,Lys37]-GLP-1-(7-37)-peptide
B4: GLP-1 derivative of Example 4 (peptide)
peptide: B1 peptide
modifications: not fully specified; Aib at position 8 (GLP-1 numbering); epsilon-amino of Lys37 acylated with branched side chain: Pre-linker dPEG12; Branched linker eps-Lys(Bis); two Post-linkers Trx-gGlu, each carrying a C20 diacid Protractor
notes: also called Chem. 24; N{Epsilon-37}-acylated [Aib8,Glu22,Arg26,Arg34,Lys37]-GLP-1-(7-37)-peptide
B5: GLP-1 derivative of Example 15 (peptide)
peptide: B1 peptide
modifications: not fully specified; Aib at position 8 (GLP-1 numbering); epsilon-amino of Lys37 acylated with branched side chain: Pre-linker 4xAdo; Branched linker eps-Lys(Bis); two Post-linkers Trx-gGlu-2xAdo, each carrying a C20 diacid Protractor
notes: also called Chem. 35; N{Epsilon-37}-acylated [Aib8,Glu22,Arg26,Arg34,Lys37]-GLP-1-(7-37)-peptide
B6: GLP-1 derivative of Example 22 (peptide)
peptide: B1 peptide
modifications: Aib at position 8 (GLP-1 numbering); epsilon-amino of Lys37 acylated with branched side chain: Pre-linker 3xAdo; Branched linker eps-Lys(Bis); two Post-linkers Trx-gGlu-3xAdo, each carrying a C20 diacid Protractor (the printed name gives (4R) for the gGlu of one arm and (4S) for the other)
notes: also called Chem. 42; N{Epsilon-37}-acylated [Aib8,Glu22,Arg26,Arg34,Lys37]-GLP-1-(7-37)-peptide
B7: GLP-1 derivative of Example 13 (peptide)
peptide: B1 peptide
modifications: Aib at position 8 (GLP-1 numbering); epsilon-amino of Lys37 acylated with branched side chain: Pre-linker 8xAdo; Branched linker eps-Lys(Bis); two Post-linkers Trx-gGlu, each carrying a C20 diacid Protractor
notes: also called Chem. 33; N{Epsilon-37}-acylated [Aib8,Glu22,Arg26,Arg34,Lys37]-GLP-1-(7-37)-peptide
B8: GLP-1 derivative of Example 21 (peptide)
peptide: B1 peptide
modifications: not fully specified; Aib at position 8 (GLP-1 numbering); epsilon-amino of Lys37 acylated with branched side chain: Pre-linker 4xAdo; Branched linker eps-Lys(Bis); two Post-linkers Trx-gGlu-Ado, each carrying a C20 diacid Protractor
notes: also called Chem. 41; N{Epsilon-37}-acylated [Aib8,Glu22,Arg26,Arg34,Lys37]-GLP-1-(7-37)-peptide
B9: GLP-1 derivative of Example 3 (peptide)
peptide: B1 peptide
modifications: not fully specified; Aib at position 8 (GLP-1 numbering); epsilon-amino of Lys37 acylated with branched side chain: Pre-linker dPEG6; Branched linker eps-Lys(Bis); two Post-linkers Trx-gGlu, each carrying a C20 diacid Protractor
notes: also called Chem. 23; N{Epsilon-37}-acylated [Aib8,Glu22,Arg26,Arg34,Lys37]-GLP-1-(7-37)-peptide
B10: GLP-1 derivative of Example 14 (peptide)
peptide: B1 peptide
modifications: not fully specified; Aib at position 8 (GLP-1 numbering); epsilon-amino of Lys37 acylated with branched side chain: Pre-linker 2xAdo; Branched linker eps-Lys(Bis); two Post-linkers Trx-gGlu-4xAdo, each carrying a C20 diacid Protractor
notes: also called Chem. 34; N{Epsilon-37}-acylated [Aib8,Glu22,Arg26,Arg34,Lys37]-GLP-1-(7-37)-peptide
B11: GLP-1 derivative of Example 10 (peptide)
peptide: B1 peptide
modifications: not fully specified; Aib at position 8 (GLP-1 numbering); epsilon-amino of Lys37 acylated with branched side chain: Pre-linker 4xeps-Lys; Branched linker eps-Lys(Bis); two Post-linkers Trx-gGlu, each carrying a C20 diacid Protractor
notes: also called Chem. 30; N{Epsilon-37}-acylated [Aib8,Glu22,Arg26,Arg34,Lys37]-GLP-1-(7-37)-peptide
B12: GLP-1 derivative of Example 8 (peptide)
peptide: B1 peptide
modifications: Aib at position 8 (GLP-1 numbering); epsilon-amino of Lys37 acylated with branched side chain: Pre-linker 4xAdo; Branched linker eps-Lys(Bis); two Post-linkers Trx-gGlu, each carrying a C20 diacid Protractor
notes: also called Chem. 28; N{Epsilon-37}-acylated [Aib8,Glu22,Arg26,Arg34,Lys37]-GLP-1-(7-37)-peptide
B13: GLP-1 derivative of Example 11 (peptide)
peptide: B1 peptide
modifications: Aib at position 8 (GLP-1 numbering); epsilon-amino of Lys37 acylated with branched side chain: Pre-linker 2xAdo; Branched linker eps-Lys(Bis); two Post-linkers Trx-gGlu, each carrying a C20 diacid Protractor
notes: also called Chem. 31; N{Epsilon-37}-acylated [Aib8,Glu22,Arg26,Arg34,Lys37]-GLP-1-(7-37)-peptide
B14: GLP-1 derivative of Example 2 (peptide)
peptide: B1 peptide
modifications: not fully specified; Aib at position 8 (GLP-1 numbering); epsilon-amino of Lys37 acylated with branched side chain: Pre-linker 2xAdo; Branched linker eps-Lys(Bis); two Post-linkers Trx-gGlu-2xAdo, each carrying a C20 diacid Protractor
notes: also called Chem. 22; N{Epsilon-37}-acylated [Aib8,Glu22,Arg26,Arg34,Lys37]-GLP-1-(7-37)-peptide
B15: GLP-1 derivative of Example 5 (peptide)
peptide: B1 peptide
modifications: not fully specified; Aib at position 8 (GLP-1 numbering); epsilon-amino of Lys37 acylated with branched side chain: Pre-linker dPEG20; Branched linker eps-Lys(Bis); two Post-linkers Trx-gGlu, each carrying a C20 diacid Protractor
notes: also called Chem. 25; N{Epsilon-37}-acylated [Aib8,Glu22,Arg26,Arg34,Lys37]-GLP-1-(7-37)-peptide
B16: GLP-1 derivative of Example 18 (peptide)
peptide: H[Aib]EGTFTSDVSSYLEEQAAREFIAWLVRGKG
modifications: not fully specified (residue 30)
notes: also called Chem. 38; N{Epsilon-36}-acylated [Aib8,Glu22,Arg26,Arg34,Lys36]-GLP-1-(7-37)-peptide
B17: GLP-1 derivative of Example 17 (peptide)
peptide: H[Aib]EGTFTSDVSSYLEEQAAREFIAWLVRKRG
modifications: not fully specified (residue 29)
notes: also called Chem. 37; N{Epsilon-35}-acylated [Aib8,Glu22,Arg26,Arg34,Lys35]-GLP-1-(7-37)-peptide
B18: GLP-1 derivative of Example 19 (peptide)
peptide: H[Aib]EGTFTSDVSSYLEEQAAREFIAWLVRGRGK
modifications: not fully specified (residue 32)
notes: also called Chem. 39; N{Alpha}([Aib8,Glu22,Arg26,Arg34]-GLP-1-(7-37)-peptidyl)-N{Epsilon}-acylated Lys
B19: GLP-1 derivative of Example 6 (peptide)
peptide: [Desaminohistidyl][Aib]EGTFTSDVSSYLEEQAAREFIAWLVRGRGGK([AEEA-AEEA-AEEA-AEEA-Lys-code γGlu-Trx-C20 diacid),(γGlu-Trx-C20 diacid])
modifications: also: branched side chain on Lys39: two identical arms on eps-Lys(Bis)
notes: also called Chem. 26; [Imp7,Aib8,Glu22,Arg26,Arg34]-GLP-1-(7-37)-peptidyl-Gly-N{Epsilon}-acylated Lys
B20: GLP-1 derivative of Example 7 (peptide)
peptide: [Desaminohistidyl][Aib]EGTFTSDVSSYLEEQAAREFIAWLVRGRGGK([AEEA-AEEA-Lys-AEEA-AEEA-γGlu-Trx-C20 diacid),(Ado-AEEA-γGlu-Trx-C20 diacid])
modifications: also: branched side chain on Lys39: two identical arms on eps-Lys(Bis)
notes: also called Chem. 27; [Imp7,Aib8,Glu22,Arg26,Arg34]-GLP-1-(7-37)-peptidyl-Gly-N{Epsilon}-acylated Lys

The binders below were run against T1, human GLP-1 receptor (human, UniProt P43220 24-463) (assay: cell-based or functional assay).
For B1, the “EC50 (pM), in vitro potency, CRE luciferase reporter in BHK cells expressing the human GLP-1 receptor” value (from here on “EC50 (pM), in vitro potency”) was 77 pM.
B2 was tested, and the “EC50 (pM), in vitro potency” value was 120 pM.
For B3, the “EC50 (pM), in vitro potency” value was 57 pM.
In the case of B4, the “EC50 (pM), in vitro potency” value is reported as 110 pM.
With B5 the “EC50 (pM), in vitro potency” value was 48 pM.
With B6 the “EC50 (pM), in vitro potency” value was 12 pM.
For B7, the “EC50 (pM), in vitro potency” value was 47 pM.
For B8, the “EC50 (pM), in vitro potency” value was 38 pM.
B9 was tested, and the “EC50 (pM), in vitro potency” value was 160 pM.
For B10, the “EC50 (pM), in vitro potency” value was 19 pM.
In the case of B11, the “EC50 (pM), in vitro potency” value is reported as 150 pM.
In the case of B12, the “EC50 (pM), in vitro potency” value is reported as 72 pM.
With B13 the “EC50 (pM), in vitro potency” value was 130 pM.
B14 was tested, and the “EC50 (pM), in vitro potency” value was 70 pM.
In the case of B15, the “EC50 (pM), in vitro potency” value is reported as 53 pM.
In the case of B16, the “EC50 (pM), in vitro potency” value is reported as 37 pM.
B17 was tested, and the “EC50 (pM), in vitro potency” value was 20 pM.
In the case of B18, the “EC50 (pM), in vitro potency” value is reported as 71 pM.
With B19 the “EC50 (pM), in vitro potency” value was 150 pM.
For B20, the “EC50 (pM), in vitro potency” value was 79 pM.

The binders below were run against T1, human GLP-1 receptor (assay: SPA competition, displacement of 125I-GLP-1(7-36)NH2 from BHK membranes with human GLP-1 receptor; low HSA (max. 0.001%)).
Experimental: (§1) For the receptor binding assay in the presence of low HSA (0.005%) 50 μl of the assay buffer was added to each well of an assay plate. […] For the receptor binding assay in the presence of high HSA (2%) 50 μl of the 8% albumin stock was added to each well of an assay plate. […] Cell membrane aliquots were thawed and diluted to their working concentration. Fifty μl were added to each well in the assay plate. […] WGA SPA beads were suspended in assay buffer at 20 mg/ml. The suspension was diluted to 10 mg/ml in assay buffer just prior to addition to the assay plate. Fifty μl were added to each well in the assay plate. […] A 25 μl aliquot was reserved for measuring total counts/well. […] The assay plate was incubated for 2 h at 30° C. […] The assay plate was centrifuged for 10 min. […] The assay plate was read in a Packard TopCount NXT instrument.
(§2) The data from the TopCount instrument were transferred to GraphPad Prism software. Individual replicates were analysed using non-linear regression.
Binder B2 has an IC50 of 1.8 nM.
Work on B3 yielded an IC50 of 0.63 nM.
Work on B4 yielded an IC50 of 0.78 nM.
Work on B5 yielded an IC50 of 0.87 nM.
B6 gave an IC50 of 1.4 nM.
In the case of B7, the IC50 is reported as 0.17 nM.
With B8 the IC50 was 1.5 nM.
B10 showed an IC50 of 0.42 nM.
B11 was tested, and the IC50 was 19 nM.
For B12, the IC50 was 1.1 nM.
B13 was tested, and the IC50 was 1.5 nM.
Binder B14 has an IC50 of 0.56 nM.
Binder B15 has an IC50 of 0.91 nM.
B16 gave an IC50 of 0.68 nM.
In the case of B17, the IC50 is reported as 0.64 nM.
For B18, the IC50 was 0.69 nM.
B19 gave an IC50 of 1 nM.
For B20, the IC50 was 0.57 nM.

What follows are binders tested against T1, human GLP-1 receptor (assay: SPA competition, displacement of 125I-GLP-1(7-36)NH2 from BHK membranes with human GLP-1 receptor; high HSA (2.0%)).
Experimental: as §1, §2
Work on B1 yielded an IC50 of 140 nM.
Work on B2 yielded an IC50 of 150 nM.
For B3, the IC50 was 17 nM.
B4 was tested, and the IC50 was 51 nM.
Binder B5 has an IC50 of 48 nM.
Binder B6 has an IC50 of 63 nM.
B7 was tested, and the IC50 was 32 nM.
Work on B8 yielded an IC50 of 19 nM.
For B9, the IC50 was 180 nM.
B10 showed an IC50 of 27 nM.
B12 showed an IC50 of 45 nM.
For B13, the IC50 was 150 nM.
In the case of B14, the IC50 is reported as 49 nM.
Binder B15 has an IC50 of 9.7 nM.
Binder B16 has an IC50 of 24 nM.
With B17 the IC50 was 77 nM.
For B18, the IC50 was 34 nM.
For B19, the IC50 was 140 nM.
For B20, the IC50 was 54 nM.
